The results in this text go back to patent US20220089722A1 (NANTONG YICHEN BIOPHARMA, published 2022).

Test [1] concerns the target T1, EGFR on F98-EGFR cells (UniProt P00533 25-1210, limits assumed). The test can be described thus: cell-based or functional assay.
The target in test [2] is T1, EGFR on F98-EGFR cells. The test can be described thus: flow cytometry on F98-EGFR cells. The protocol: F98-EGFR cells (a DMEM containing 10% FBS, 200 μg/ml G418) were cultured. 2×10⁵ cells were washed by precooled PBS for 3 times, and blocked by 2% FBS (soluble to PBS). IgFD-8, IgFD-9, IgFD-10, IgFD-11, IgFD-18, IgFD-19, IgFD-25, IgFD-26 or IgFD-31 (aEGFR expressed in a laboratory as a control) was added and incubated for 2 h at 4° C. (cells were gently mixed during incubation), unbounded antibodies were washed by 2% FBS (soluble to PBS), and then the remaining cells were incubated by FITC anti-human IgGFc(KPL, Inc., MD) for 1 h at 4° C., and washed by 2% FBS (soluble to PBS) for flow cytometry analysis. As shown in FIG. 7 and Table 4, the anti-CD3/anti-EGFR heterodimers in different forms of fusion could bind to EGFR on F98-EGFR cells, and there was no significant difference in the binding capacity of different heterodimers to F98-EGFR.

For test [3], the target named is T2, CD3 on T cells (Jurkat T cells; PBMC-T cells).
T2 construct: whole, on cells; the target is inferred from the anti-CD3 arm of the constructs
The experiment in a line: flow cytometry on activated T cells from PBMCs (PBMC-T). The procedure: Peripheral blood of healthy volunteers was collected, and Ficoll-Hypaque(GE Healthcare) was used to separate peripheral blood monouclear cells (PBMCs) via gradient centrifugation. The purified PBMCs were resuspended in RPMI 1640/10% FBS complete medium. PBMCs were incubated with immobilized anti-CD3 (Clone OKT3, eBiosciences), and 2 μg mL anti-CD28 (Clone CloneCD28.2, eBiosciences) at 37° C. for 48 h. The activated T cells were then expanded for 10d with 20 U/ml IL2(R&D Systems). 2×10⁵ cells were washed by precooled PBS for 3 times, and blocked by 2% FBS (in PBS), and then incubated with IgFD-8, IgFD-18 or IgFD-19 at different concentrations (25 nM, 7.5 nM, 2.5 nM, 0.75 nM or 0.25 nM) for 1 h at 4° C. (cells were gently mixed during incubation). Unbounded antibodies were washed by 2% FBS (in PBS), and the cells were incubated with FITC anti-human IgGFc (KPL, Inc., MD) for 1 h at 4° C. (cells were gently mixed during incubation). The cells were subjected for flow cytometry analysis after the unbounded antibodies were washed by 2% FBS (in PBS).

T2 sequence (P07766 23-207): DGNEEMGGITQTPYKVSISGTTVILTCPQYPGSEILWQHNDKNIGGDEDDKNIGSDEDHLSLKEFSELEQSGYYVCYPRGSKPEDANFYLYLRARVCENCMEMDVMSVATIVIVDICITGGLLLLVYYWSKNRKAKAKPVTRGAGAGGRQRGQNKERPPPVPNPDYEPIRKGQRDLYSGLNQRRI

B1: IgFD-8 (bispecific antibody, human IgG1, kappa)
chain 1: EVQLVESGGGLVQPGGSLRLSCAASGFTFNTYAMNWVRQAPGKGLEWVARIRSKYNNYATYYADSVKDRFTISRDDSKNTLYLQMNSLRAEDTAVYYCVRHGNFGNSYVSWFAYWGQGTLVTVSSASTKGPSVFPLAPSSKSTSGGTAALGCLVKDYFPEPVTVSWNSGALTSGVHTFPAVLQSSGLYSLSSVVTVPSSSLGTQTYICNVNHKPSNTKVDKKVEPKSCDKTHTCPPCPAPPVAGPSVFLFPPKPKDTLMISRTPEVTCVVVDVSHEDPEVKFNWYVDGVEVHNAKTKPREEQYNSTYRVVSVLTVLHQDWLNGKEYKCKVSNKGLPSSIEKTISKAKGQPREPQVYTLPPSRDELTKNQVSLTCLVKGFYPSDIAVEWESNGQPENNYKTTPPVLDSDGSFFLYSKLTVDKSRWQQGNVFSCSVMHEALHNHYTQKSLSLSPGK
chain 2: QAVVTQEPSLTVSPGGTVTLTCRSSTGAVTTSNYANWVQQKPDHLFRGLIGGTNKRAPGTPARFSGSLLGDKAALTISGAQPEDEAEYYCALWYSNLWVFGGGTKLTVLKRTVAAPSVFIFPPSDEQLKSGTASVVCLLNNFYPREAKVQWKVDNALQSGNSQESVTEQDSKDSTYSLSSTLTLSKADYEKHKVYACEVTHQGLSSPVTKSFNRGECDKTHTCPPCPAPPVAGPSVFLFPPKPKDTLMISRTPEVTCVVVDVSHEDPEVKFNWYVDGVEVHNAKTKPREEQYNSTYRVVSVLTVLHQDWLNGKEYKCKVSNKGLPSSIEKTISKAKGQPREPQVYTLPPSRDELTKNQVSLTCLVKGFYPSDIAVEWESNGQPENNYKTTPPVLDSDGSFFLYSKLTVDKSRWQQGNVFSCSVMHEALHNHYTQKSLSLSPGKGGSGGSGGGGSGGGGSDIQMTQSPSSLSASVGDRVTITCQASQDISNYLNWYQQKPGKAPKLLIYDASNLETGVPSRFSGSGSGTDFTFTISSLQPEDIATYFCQHFDHLPLAFGGGTKVEIKGGGGSGGGGSGGGGSQVQLQESGPGLVKPSETLSLTCTVSGGSVSSGDYYWTWIRQSPGKGLEWIGHIYYSGNTNYNPSLKSRLTISIDTSKTQFSLKLSSVTAADTAIYYCVRDRVTGAFDIWGQGTMVTVSS
Turning to B1, the “Promotion for the specific killing effect of PBMCs on target cells by heterodimers (EC50, pM); F98-EGFR cells, LDH assay” value with EGFR on F98-EGFR cells [1] is 766 pM. Also, the Kd with EGFR on F98-EGFR cells [2] is 3.12 nM; in test [3], 3.74 nM.
